The values below come from the supplement of paper PMC12764529.

Series [1] is described as follows: folding stability dG unfold (combined trypsin and chymotrypsin); higher = more stable. An outline of the steps:
(§1)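 Digests were run with trypsin and chymotrypsin at 11 concentrations in threefold dilutions, plus a no-protease condition, on designed mini-proteins in a PA-tagged cDNA display construct. The mini-proteins were under 80 residues, had no cysteine, and were kept only when AlphaFold2 dimer inter-PAE was above 15. After sequencing, Bayesian fitting of the counts gave K50, from which unfolding free energy was derived against a sequence-predicted unfolded-state K50 and a shared folded-state K50, per protease or combined.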

Series [2] is described as follows: folding stability dG unfold from chymotrypsin proteolysis; higher = more stable. The method in brief:
as §1

Series [3] is described as follows: folding stability dG unfold from trypsin proteolysis; higher = more stable. The method in brief:
as §1

± gives the half width of the 95% confidence interval. Where only a bound is given, the exact number is not on record here.

As to “SAGGSAGGMVLVLRFPLGEPALIALYDPETGEVHVYDPGTRELLGTFPLPIEDFLELGAEAEPVSAGGSAGG [r6_831_TrMRF]”, the “folding stability dG unfold” value was found to be 1.84 ± 0.12 kcal/mol in series [1], 2.2 ± 0.094 kcal/mol in series [2] and 0.698 ± 0.051 kcal/mol in series [3].
Turning to “SAGGSAGGMVTFTVEYESDPALLEKLKEELPGVEILEVKREGPKKTITITIKVPSEEKAKKFLSSAGGSAGG [r6_334_JUSTAS]”, the “folding stability dG unfold” value was 1 ± 0.12 kcal/mol in series [1], 1.16 ± 0.11 kcal/mol in series [2] and 0.704 ± 0.086 kcal/mol in series [3].
For “SAGGSAGGMVTVPVPKDKPLNPVATVKLPDGSTIPAGPVAVDLEKGTATLEVPEPAEVIVEVNPSAGGSAGG [r6_180_JUSTAS]”, in that order: 1.01 ± 0.037 kcal/mol, 1.36 ± 0.023 kcal/mol and 0.0542 ± 0.08 kcal/mol.
The like results for “SAGGSAGGNKIWIPITITFMVPVRKDPDGKPKLSPEDPDRWKPVEFEIPIEIDPDPDNGKIKIWSAGGSAGG [r6_537_TrROS]” were, in that order, 1.26 ± 0.24 kcal/mol, 0.701 ± 0.25 kcal/mol and 1.5 ± 0.042 kcal/mol.
For “SAGGSAGGNKPIMVRIKIWHDNGKTRRFFVQIPEGFDDPSELASELAKEFNKQYPNYRIEVEPFSAGGSAGG [r6_132_TrROS]”, in that order: 2.78 ± 0.13 kcal/mol, 2.86 ± 0.03 kcal/mol and 2.55 ± 0.052 kcal/mol.
As for “SAGGSAGGNKSYTVIIRFPMKRKEDPDGEDKKPRPVTIEYTVKSPEDANELKNKLKDNGAEIVPSAGGSAGG [r6_141_TrROS]”, the “folding stability dG unfold” value in series [1] was 0.531 ± 0.12 kcal/mol; in series [2], 0.698 ± 0.12 kcal/mol; in series [3] it was 0.263 ± 0.15 kcal/mol.
For “SAGGSAGGNMIPVKARMKWPDGKEFPFEIMVQYQPDGQMQIEIQNPGDGETVTFPNMKLIDVEISAGGSAGG [r6_255_TrROS]”, in that order: 0.469 ± 0.06 kcal/mol, 0.828 ± 0.021 kcal/mol and -0.656 ± 0.26 kcal/mol.
For “SAGGSAGGNTITVFMPYSQARELAEELRDEGITVDIQPYPDWMFITVEIKVPKIDPEDNPDNKDSAGGSAGG [r6_392_TrROS]”, in that order: 1.35 ± 0.089 kcal/mol, 1.3 ± 0.074 kcal/mol and 1.43 ± 0.047 kcal/mol.
For “SAGGSAGGPEIDLKEVRVFYPPGGERLVLVEVRDDVPLEQVRDWVLERGGEFYRELPNQILVRGSAGGSAGG [r6_543_TrMRF]”, in that order: -0.00273 ± 0.18 kcal/mol, -0.179 ± 0.34 kcal/mol and 0.0648 ± 0.21 kcal/mol.
Consider “SAGGSAGGPEITIIIGNAGPIEVALKTAKEIKKILEEKGYPNVKIPILIIPFGSPEKLKEALGGSAGGSAGG [r6_476_TrMRF]”, for which the “folding stability dG unfold” value in series [1] is 0.383 ± 0.29 kcal/mol; in series [2] it was -0.0243 ± 0.32 kcal/mol; in series [3] it was 0.0997 ± 0.1 kcal/mol.
Regarding “SAGGSAGGPEVKILKVDPENNTITLALPVDNEILLLEIKIEPDPENPNSFKATIELKVFPYNEASAGGSAGG [r6_371_TrMRF]”, the figures for the “folding stability dG unfold” value in series [1], in series [2] and in series [3] were 2.8 ± 0.26 kcal/mol, 3.21 ± 0.096 kcal/mol and 2.33 ± 0.28 kcal/mol, respectively.
The like results for “SAGGSAGGPEYQMIPVKNVEIDEFDPNDGNVTIKFKGNGQEIKLPPDGIQSIEISPDQGWIYIRSAGGSAGG [r6_315_TrROS]” were, in that order, -0.273 ± 0.12 kcal/mol, -0.365 ± 0.22 kcal/mol and -0.318 ± 0.093 kcal/mol.
The like results for “SAGGSAGGPKEYYRVTVYVRNKDGEWEKVAEIEVPGMTEEELKELLAKLGLPPGAEVEIKIEKVSAGGSAGG [r6_88_TrROS_Hall]” were, in that order, 5.01 ± 0.21 kcal/mol, 4.92 ± 0.15 kcal/mol and 5.02 ± 0.49 kcal/mol.
The like results for “SAGGSAGGPLENDIPIPLTVPLPGPGTAELFLLPSTGEVLALVEGKPYLVSLEDLKDGVFRLGLSAGGSAGG [r6_939_TrMRF]” were, in that order, 0.576 ± 0.12 kcal/mol, 0.989 ± 0.17 kcal/mol and -0.577 ± 0.36 kcal/mol.
For the sequence “SAGGSAGGPLRIEIEIKIEIFPFPDGWYLIRMTIKIKVYNPGEDGQPIAEYEITFYFIIPPGDFSAGGSAGG [r6_60_TrROS]”, the entries for the “folding stability dG unfold” value in series [1], in series [2] and in series [3] were more than 6 kcal/mol, 6.06 ± 0.15 kcal/mol and 4.25 ± 0.17 kcal/mol, respectively.
For “SAGGSAGGPLVVILPDPETGLFHVRVRYPDGTVESLGPFPSLEEALEALPSEGLGRVEVRPYLKSAGGSAGG [r6_307_TrMRF]”, in that order: 1.28 ± 0.049 kcal/mol, 1.44 ± 0.038 kcal/mol and 1.05 ± 0.014 kcal/mol.
As to “SAGGSAGGPNMYMFKLEIKWYDPGKGKPVATRPITVMVPEDDLPEILKNLPPGFEIKNITIFPMSAGGSAGG [r6_777_TrROS]”, the “folding stability dG unfold” value in series [1] amounted to 2.45 ± 0.11 kcal/mol; in series [2], 2.5 ± 0.071 kcal/mol; in series [3] it was 2.16 ± 0.058 kcal/mol.
For “SAGGSAGGPNYFVRITIKMRKPNGKPIGEFPIWIPFKSKEQARSLADELAQMPGIEKVDIELVPSAGGSAGG [r6_475_TrROS]”, in that order: 2.53 ± 0.051 kcal/mol, 2.68 ± 0.031 kcal/mol and 2.22 ± 0.025 kcal/mol.
For “SAGGSAGGPPGEPPDVKVIPIEIEHERYNPDDGEMEVETIPFPIVIAPDGTIYHGDRPIPPDDISAGGSAGG [r6_515_TrROS]”, in that order: 1.8 ± 0.41 kcal/mol, 1.41 ± 0.09 kcal/mol and 2.02 ± 0.24 kcal/mol.
For “SAGGSAGGPPVEERELTLPDGTRLTITRYPDSYTVEVTLPDGTVETRTYPDVTPEEAVAAVKAASAGGSAGG [r6_459_JUSTAS]”, in that order: 1.85 ± 0.051 kcal/mol, 1.927 ± 0.013 kcal/mol and 1.68 ± 0.043 kcal/mol.
Consider “SAGGSAGGPVKIHVHVNPEEGYYMIEVRSGNEPRHIMIPMDKEEIKSFIENLPPGIEVEIHPMPSAGGSAGG [r6_401_TrROS]”, for which the figures for the “folding stability dG unfold” value in series [1], in series [2] and in series [3] were 1.4 ± 0.14 kcal/mol, 1.19 ± 0.072 kcal/mol and 1.37 ± 0.067 kcal/mol, respectively.
The like results for “SAGGSAGGQEEEAEALAKEVEAPAREALPGTEVTVTVTVTRREDGSLEVDVTIEGDFALPAALLSAGGSAGG [r6_999_JUSTAS]” were, in that order, 0.783 ± 0.24 kcal/mol, 0.636 ± 0.067 kcal/mol and 0.813 ± 0.065 kcal/mol.
Regarding “SAGGSAGGRIEVDPEGATIKYEHNPNMMQIEIKYPGKKVQIMIPPDFMKQNPDMPIKDLVEWILSAGGSAGG [r6_369_TrROS]”, the “folding stability dG unfold” value stood at 1.11 ± 0.23 kcal/mol in series [1], 0.94 ± 0.089 kcal/mol in series [2] and 1.09 ± 0.081 kcal/mol in series [3].
For the sequence “SAGGSAGGRKTRRLVLEVDDIPEGVSAEELTEEELRRLGLPPDARIRVVRRPDGRLLVVIEVRESAGGSAGG [r6_551_TrROS_Hall]”, the “folding stability dG unfold” value is 2.42 ± 0.051 kcal/mol in series [1], 2.71 ± 0.0092 kcal/mol in series [2] and 1.64 ± 0.022 kcal/mol in series [3].
For “SAGGSAGGSAAAPPPPTITITVEVRTLPDGTVEITATATLPDGTTLTVTLRINADGSLTATSAGGSAGGSAG [r3_259_TrROS_Hall]”, in that order: 3.17 ± 0.23 kcal/mol, 3.4 ± 0.17 kcal/mol and 1.91 ± 0.13 kcal/mol.
The like results for “SAGGSAGGSAAISIDLPPNSVLNISIPVTEPGGKPYTVKISVYSTPLPSNSYELNIKVTIVSAGGSAGGSAG [r3_347_JUSTAS]” were, in that order, 4.43 ± 0.12 kcal/mol, 4.66 ± 0.093 kcal/mol and 3.56 ± 0.15 kcal/mol.
For “SAGGSAGGSAAITIPVPPGETVTIKIEIEMTVPPNQRNPDGQRMKPGQKVRMEVTFTFRVDGSAGGSAGGSA [r18_450_TrROS]”, in that order: 4.24 ± 0.13 kcal/mol, 4.63 ± 0.058 kcal/mol and 3 ± 0.11 kcal/mol.
As to “SAGGSAGGSAAKIVDINISVRRSPENGYWKIPITIRIKGPNGKEQEIDLTMVFKIPPGQPLFSAGGSAGGSA [r18_95_TrROS]”, the “folding stability dG unfold” value in series [1] came to 2.9 ± 0.15 kcal/mol; in series [2] it was 2.88 ± 0.043 kcal/mol; in series [3] it was 2.83 ± 0.072 kcal/mol.
Consider “SAGGSAGGSAAKPIPFTITSVSVPTAPDGKKYAVVEISFPGSGAKAWAVYDIDDPYIKEAGSAGGSAGGSAG [r3_57_TrMRF]”, for which the “folding stability dG unfold” value was 1.37 ± 0.1 kcal/mol in series [1], 1.71 ± 0.15 kcal/mol in series [2] and 0.804 ± 0.095 kcal/mol in series [3].
The like results for “SAGGSAGGSAAPLEARLVSVSRDPAGNRLHAVYVVRDPSTGEQYLVTFSADPTSISVRVERVSAGGSAGGSA [r18_444_TrMRF]” were, in that order, 3.96 ± 0.071 kcal/mol, 4.48 ± 0.089 kcal/mol and 2.69 ± 0.12 kcal/mol.
Take “SAGGSAGGSAAPTNPVEITLKRPDGTPVKATITFYPDGVKVTVEDGDTTTTSWLSPEEITLSAGGSAGGSAG [r3_373_JUSTAS]”: the entries for the “folding stability dG unfold” value in series [1], in series [2] and in series [3] were 1.89 ± 0.03 kcal/mol, 1.722 ± 0.015 kcal/mol and 2.09 ± 0.037 kcal/mol, respectively.
The like results for “SAGGSAGGSAAPVPPDRTLTVYRDPNTDKYTIRTPDGSVTVSPITPEELRAAGAPVVYLGPESAGGSAGGSA [r18_125_JUSTAS]” were, in that order, -0.297 ± 0.073 kcal/mol, -0.0867 ± 0.12 kcal/mol and -1 ± 0.25 kcal/mol.
For “SAGGSAGGSAAPVVREIEIDLPYPDGSPLTVEKVTEEPAPGTVHYEIKLPDGTVITRTVPTFSAGGSAGGSA [r18_370_JUSTAS]”, in that order: -0.797 ± 0.24 kcal/mol, -1.03 ± 0.39 kcal/mol and -0.92 ± 0.3 kcal/mol.
For “SAGGSAGGSADAVVVEVTLPGGGKARAVFFPDGSVVIVVDFPDGRRAVIFLENNEIVVLPVDSAGGSAGGSA [r18_285_TrMRF]”, in that order: 3.63 ± 0.12 kcal/mol, 3.15 ± 0.19 kcal/mol and 3.73 ± 0.2 kcal/mol.
For the sequence “SAGGSAGGSADDEIVAEFTFTVPGTGVKKVKVKVFKDPNSDEYWVRVEGKWLPVSNPEEALESAGGSAGGSA [r18_67_TrMRF]”, the results for the “folding stability dG unfold” value in series [1], in series [2] and in series [3] were 2.1 ± 0.14 kcal/mol, 2.4 ± 0.066 kcal/mol and 1.62 ± 0.11 kcal/mol, respectively.
Take “SAGGSAGGSADELLDKLLNHKWLRDAMEKAPPGMEEIDIELPDGGKIRIRRTPNGGFRLEPSAGGSAGGSAG [r3_124_TrROS]”: the figures for the “folding stability dG unfold” value in series [1], in series [2] and in series [3] were 1.76 ± 0.087 kcal/mol, 1.48 ± 0.081 kcal/mol and 1.904 ± 0.019 kcal/mol, respectively.
